Target: T1, NAC CoV2 Mosaic (SARS-COV-2)
T1 construct: also called NAC Mosaic (The Native Antigen Company)
Test: ForteBio

B1: SC2 antibody 3396 (antibody, V domains shown)
VH: GVQLVESGGGLVQPGRSLRVSCAASGFTFADYAMHWVRQAPGKGLEWVSGISWNSGNIAYADSVKGRFTISRDNAKNSLYLQMDSLRPDDTALYYCVKASTLYYYFYMDVWGKGTTVTVSS
VL: QSALTQPPSASGSPGQSVTISCTGTSSDVGGYDYVSWYQQHPGKAPKFMIYEVSKRPSGVPDRFSGSKSGNTASLTVSGLQAEDEADYYCCSYAGSNNYVFGTGTKVTVLG
notes: also called Anti-SARS-COV-2 antibody 3396
  Kd: 21 nM
